Results: a protein production outcome set (Wang et al. 2014)

Assay: label from the status in PepcDB records

| Sequence | protein production |
| --- | --- |
| MGEGALAPGLQLLLRACEQGDTDTARRLLEPGGEPVAGSEAGAEPAGPEAARAVEAGTPVPVDCSDEAGNSALQLAAAGGHEPLVRFLLRRGASVNSRNHYGWSALMQAARCGHASVAHLLLDHGADVNAQNRLGASVLTVASRGGHLGVVKLLLEAGATVDHRNPSGESTASGGSRDELLGITALMAAVQHGHEAVVRLLMEWGADPNHTARTVGWSPLMLAALLGKLSVVQQLVEKGANPDHLGVLEKTAFEVALDRKHRDLADYLDPLTTVRPKTDEEKRRPDIFHALKMGNFQLVKEIADEDPNHVNLVNGDGATPLMLAAVTGQLPLVQLLVEKHADMNKQDSVHGWTALMQATYHGNKEIVKYLLNQGADVTLRAKNGYTAFDLVMLLNDPDTELVRLLASVCMQVNKDRGGRPSHRPPLPHSKARQPWSIPMLPDDKGGLKSWWSRMSNRFRKLKLMQTLPRGLAANQPLPFSDEPELALDSTMRAPPQDRTNHLGPPEAAHAAKDSGPGNPRREKDDVLLTTMLRNGAPFPRLPSDKLKAVIPPFLPPSSFELWSSDRSRTCPNGKADPMKTVLPPRASRAHPVGCVGTDGAAGRPVKFPSISRSPTSPASSGNFNHSPHSSGGASGVGSMSRLGGELHNRSGGSVDSVLSQIAAQRKKAAGLCEQKPPCQQSSPVGPATGSSPPELPASLLGSGSGSSNVTSSSKKLDPGKRPPSGTSATSKSTSPTLTPSPSPKGHTAESSVSSSSSHRQSKSSGGSSSGTITDEDELTGILKKLSLEKYQPIFEEQEVDMEAFLTLTDGDLQELGIKTDGSRQQILAAISELNAGKGRERQILQETIHNFHSSFESSASNTRAPGNSPSMAGWVRPEETVSSRR | failed |
| MGEKPWQPLLQSFEKLSNCVQTHLSNFIGIKNTPPSSQSTIQNPIISLDSSPPIATNSSSLQKLPLKDKSTGPVTKEDLGRATWTFLHTLAAQMTILSRMYPCRECADHFKEILRSNPAQAGSQEEFSQWLCHVHNTVNRSLGKLVFPCERVDARWGKLECEQKSCDLHGTSMDF | failed |
| MGENYKFFNHKDCEFFPCHKTNKPEEFNCLFCYCPLYALGENCGGNFKYTDKGIKDCSSCILPHKKDNYNYIMSKFQDLVKITSKKLEHHHHHH | failed |
| MGESYSSGYSLVVRVIANDRSGLLRDITTILANEKVNVLGVASRSDTKQQLATIDMDIEIYNLQVLGRVLAKLNQLPDVIDARRQQGALEHHHHHH | not failed |
| MGEVFAGRYELVDPIGRGGVGAVWRAWDHRRRRYVAAKVLQQRDAHSLLRFVREQALRIDHPHVLAPASWAADDDQVLFTMDLVTGGSLVHLVGDYGPLPPEFVCTLLDQLLSGLAAVHGEGVVHRDIKPANLLLEATGTGRPRLRLSDFGIAMRLGEPRLTETNLVVGTPGYLAPEQMMGAEPDFPSDLFAVGLVALYLLEGAKPDAKVLVQHFAEHGTPPAPRGIPEPLWQVVATLLQPDPSARFRTATGARKALAAAVELLPEPGPDDELIEIFDQVGPLPTGFGPEGPFKRASGVDDVPTDPRRPAGTPPGVDPSPPATPPTPPPAPPWQGTPPAGPSSGLDRPSPGSPGPPPTGPDSTPASPPPGTPVTATGTPSAPGLPPASDQGWTPSTPSGPTAPPSAPSAPSAPSAPGPTRPAPHGTHSEEVPLAERPGAMSETGSFHLPPPQPTVTPTSDAAASDAAAEAAQPPAPHPAFTGGPRGLPPDRAPGRSQHPAPHGPPLTARSLAPSPARRADVPTAAYTARNPRSAPPAQHRGARRRRRPGPPARVALPVLLLALACYAVGFWALTRI | failed |
| MGEVFQKEAYAQELIDYYNQSTNDVLKRTASISENEKPRVLFLVYDQRKNSYWTPGGEFYQNNLITMAGGKTVSSDLPTGKAQINVEQAASWNPDVIITSAHTMEYPSTKVKEDVLTDEGWKEINAVKSGNVYAMPFDGESWDTLGSKYVLGLYWTAKTLEHHHHHH | not failed |
| MGFIQWCLAHLNYWTIMFLMAIESSFIPFPSEIIVPPAAWMAATGQNGLNVFLVILFATIGAGIGAAVNYILSLLLGRPIVYAFANSKLGHLCLINEEKVRYAERYFDKNGAVSTLVGRLIPAVRQLISIPAGLARMKFLPFISYTMLGAGIWNCILAAIGYNLAKVPGIETQEQLLEKVNKYSHEIGFSIMGVVVVVLLIMFYKKKRRSARKGN | failed |
| MGGGDGRRIDAFVSYSRAADSRLAPSIQRGLARLAKKWYRTRALNVFRDQTDLSASHALGASIERALADARFFVLLASPAAAESKWVAKEIEFWQRNRTSDTFLVALTDGTIRWDDEAGDFDWSVTDALPRSLSGYFEAEPLWQDLTWSRDADRLSLWHAGFRDAVATLAAPIHGSSKRALDNAEVKEHRALLLVGALATALILTLAVSFGIQYWFATAERDRANANARDATVMSAIQRAQVELADAETGYDVSAYRRLMAARSLAGRPSVEGAAYDAALDAAYSRPNLLRVTEVDSGPDSRAAMTVDGGRVAFGGKEQPTLWSPGTGRPSGPALEAAETTDSKALALAFSRDGKRLAAAYEAAVVLWDVASGKKINEFATDRRTTTSLALSPDGTTVAVAGGGLRIWDAGSGRRIGEPLGVTGDRVVFSPDGRKLAFDALNDGGSEVHVRGVGAEGAGEVVIPYPHDVISGIAFTPDTDALAVGTEDGGLRLWDPDSGAAEGRAMSGHQGAIRAIAFAAGGSRIATAGADRTIRQWNAETGSPIGFPLTGHAGPVDFIAFSRGGSELVSLGEDATLRRWDAGNALLRTGPDDASAPDALAVAPRGAKVAVGGREGVRVFNQETGVQVAALDLPQGVLSLSYSPDGTSLLIVSPDALRLWEEGAEARTVTLDSSVGPVAGAAFMPHGRQIVVGSYAGKLLFEDLDDEATGTPGASIDITCAARHLAVSQDGMQVAYACDDTGGVADAEAGGVRTFEAEDRVSALVISPDGRTLILGTLDGTLWRLEHGAEALVGVGVHRGAVRSVAYGPDGRWFASAGEDGSVVVHPHGAREISARIPAHTGPVEAVAFSGDGSRLISLGADKAARVWHVFRDPPGDLCERITYNMSESDWKKWISDSFGYRDQCAGKPRAHG | failed |
| MGGGGGSRGPGHAARIAAPPFRPPSPCPAMLAAGEMCGAAHCPARPAPVSCRDRPRRFSSPSPLPGSLFFSPVAAGRRVSRPIFLFCSFGGFCMQRFLTLALLGAAALGGALAQNAAPAPAPAPVAQPAPAPQTAPATPAAQPAAPAVRPPAANYVVVGNLYYDQGKFDQAYVAFRTAAELDPRNTQALLGLGRSQVRLRLYAPAVDTLRRLTTVDPQNVSGYVALSQAYQQQYMGSGDRASVTGNLDAALAVLQQAEAAVTALPEADRALAQSKLLNERGSVYRLQGKPTQAIEAFRQASALNPENSLLLFNLGDMYAASGQLPLAVSALQQAVILDPRDPYNRAYYAKLLALSGNLTSARVEAAQASRLVTGNAYATGQYGVVSYLAGDRTTARTQLAQAVRLDPLRYPEFYYYLGRLDLDGSDLKSARDNLTRAVALNSTSAEYAYYLGLAYERGVPGVAADNVRARENYDKALKLAPGYKQAQEGADRLKPPSSGN | failed |
| MGGHPQLRLVKALLLLGLNPVSASLQDQHCESLSLASNISGLQCNASVDLIGTCWPRSPAGQLVVRPCPAFFYGVRYNTTNNGYRECLANGSWAARVNYSECQEILNEEKKSKVHYHVAVIINYLGHCISLVALLVAFVLFLRLRPGCTHWGDQADGALEVGAPWSGAPFQVRRSIRCLRNIIHWNLISAFILRNATWFVVQLTMSPEVHQSNVGWCRLVTAAYNYFHVTNFFWMFGEGCYLHTAIVLTYSTDRLRKWMFICIGWGVPFPIIVAWAIGKLYYDNEKCWFGKRPGVYTDYIYQGPMILVLLINFIFLFNIVRILMTKLRASTTSETIQYRKAVKATLVLLPLLGITYMLFFVNPGEDEVSRVVFIYFNSFLESFQGFFVSVFYCFLNSEVRSAIRKRWHRWQDKHSIRARVARAMSIPTSPTRVSFHSIKQSTAV | failed |
| MGGIPDITPYPLTYSLGGVIPLSSVLEMLWVEKYRPRSLDDIVDQKHVVERLKQFVKQRNMPHLLFAGPPGTGKTTAAHALAHDLFGENYRQYMLELNASDERGINVIREKVKEFARSRTPPEIPFKIVLLDEADNMTSDAQQALRRLMELYSSVTRFILIANYPSKIIDPIQSRCAFFRFQPLSKQDVIERLRYIAENEGVDYEEEALDAIYEISEGDMRKAINVLQAASYLGKVTVDAVYRVVGMAKPREVREMLATALKGDFTAARSLLRKIMIEYGMSGEDVARQIHRELFSTELKMPEELRVLAADYLGEVHYRLVEGSDDDIQLSAFLAWLTMMSRKLEV | not failed |
| MGGIYRLSLKSTEATAERLSCDTRCNYEDRDLAYSPDGRWLAIARRFSNISEDIFIRDLASAHEKRLTQGLEDIRGLSWTPDSQALVFATEDSGSSNGFTLDINTAQIRSLDVEGMSYPSSVSAEGELVYHQYHRQFQMAYFSLGDKVPGSLFPLLYSGVSHRNPDYSPEAKRIVFVSSETG | failed |
| MGGKWSTPSFDEAARLVLGRGFHHVSLCAAGYFSDGNETIHRESVLSAIDPSVRVETIPCLNDSPHLIACLAGRVVAASRQILAFSGDLKG | failed |
| MGGLGYGCHPVPAVLDDEGNQLPDPGRRRTVIHDGSAADRQPGVQHRALADGRRQLARHRLLPGRARRVIAGQGCQRARPRSGEGRRRGVHGDLRHRIRHGPASLPDRGGRGRRAEALLVAEEHAMSRASRHRILAAMLSACLLSLLGGCTPLTVLAVLGGCKDGGSNGSSGGVTGSVTTGEVRDGMTIAQTKAWFNGSDGPDNVCQAYPDGQCTWWACMRGHKIGLDVGSYWGNGGDWAASATAAGWKTTRTDPVAGSIVSYPPGVADADTLYGHVAVVEAVDRTAGTVTISEMNGRGGLGIVNHRTHRINVGAVYILPNGSVSTNGSAGTDSTSSGSESSDSSSSSDSSSSSDPVEAAWTCSSSDSGSTDVVVDYDGDGTHATPEQARAIARKMIASYKDWGDGDYDALVWLWNKESGWQWNATNPSSGAYGIPQALPASKLASAGDDWKDNAATQIKWGLNYIAGRYGSPSAAKTFWLAHNWY | failed |
| MGGLTLFAAQGCKAPKQVAEQAEHPNIIYVFPDQYRNQAMGFWNQEGFRDKVNFRGDPVHTPNIDTFARESMVLTSAQSNCPLSSPHRGMLLTGMYPNRSGVPLNCNSTRPISSLRDDAECIGDVFSKAGYDCAYFGKLHADFPTPNDPENPGQYVETQRPVWDAYTPKEQRHGFNYWYSYGTFDEHKNPHYWDTDGKRHDPKEWSPLHESGKVVSYLKNEGNVRDTKKPFFIMVGMNPPHSPYRSLNDCEEQDFNLYKDQPLDSLLIRPNVDLNMKKAESVRYYFASVTGVDRAFGQILEALKQLGLDKNTVVIFASDHGETMCSQRTDDPKNSPYSESMNIPFLVRFPGKIQPRVDDLLLSAPDIMPTVLGLCGLGDSIPSEVQGRNFAPLFFDEKAEIVRPAGALYIQNLDGEKDKDGLVQSYFPSSRGIKTARYTLALYIDRKTKQLKKSLLFDDVNDPYQLNNLPLDENKEVVEQLYREMGTMLKEIDDPWYTEKILSDRIPYLEHHHHHH | failed |
| MGHEAKHPIIIGITGNIGSGKSTVAALLRSWGYPVLDLDALAARARENKEEELKRLFPEAVVGGRLDRRALARLVFSDPERLKALEAVVHPEVRRLLMEELSRLEAPLVFLEIPLLFEKGWEGRLHGTLLVAAPLEERVRRVMARSGLSREEVLARERAQMPEEEKRKRATWVLENTGSLEDLERALKAVLAELTGGAKEGRG | not failed |
| MGHHHHHHENLYFQSHLKIMDVEGGALVDPDHIEEVETSMVIVVDDDDGDVAMVVEEDKHPMRDDPCIEDIMDDEHAPLVAELQSALNNPDDKQASEDPLLED | failed |
| MGHHHHHHENLYFQSHMTDFVELMNSMSSTFNSDCATSTAEGGTLLNLNLAEDKTLKWRNLANNQFASKEKKHKDKEEEERKEARNQEEIEDIKALLADVVDAAAVKLEEEEAQNAEKVEPHTKCEIEEEGRKEMEYDQDVAKQDSEMEKKQNGKATSITVKMES | not failed |
| MGHHHHHHSHADLPQWVSERLLQQINQLTNYEPVIGIMGKTGVGKSSLCNALFAGDISPVSDVAACTREPLRFRLQVGDRYITLMDLPGVGESGARDTEYAALYREQLPRLDLVLWLIKADDRALTVDEHFYHQVIGEVYRHKVLFVISQSDKAEPTSGGGQLSTAQKQNISRKICLLHELFQPVHPVCAVSVRLQWGLKVMAERMIKCLP | not failed |
